± gives the uncertainty stated by the source.
B1: Nucleolar transcription factor 1, residues 408 to 469; numbered along this chain, P17480 (parent)
chain: KRPVSAMFIFSEEKRRQLQEERPELSESELTRLLARMWNDLSEKKKAKYKAREAALKAQSER

Variants of: B1
Assay: abundance fitness (aPCA) (normalised: wild type 0, dead -1); higher = more abundant; growth selection in yeast, the domain comes from the species named
Settings: Homo sapiens

Variant	abundance fitness
KRPVSAMFIFSEEKRRQLQEERPELSESELTRLLARMWNDLSEKKKAFYKAREAALKAQSER	-0.066 ± 0.067
KRPVSAMFIFSEEKRRQLQEERPELSESELTRLLARMWNDLSEKKKAGYKAREAALKAQSER	-0.07 ± 0.052
KRPVSAMFIFSEEKRRQLQEERPELSESELTRLLARMWNDLSEKKKAHYKAREAALKAQSER	-0.213 ± 0.35
KRPVSAMFIFSEEKRRQLQEERPELSESELTRLLARMWNDLSEKKKAIYKAREAALKAQSER	-0.264 ± 0.36
KRPVSAMFIFSEEKRRQLQEERPELSESELTRLLARMWNDLSEKKKALYKAREAALKAQSER	-0.11 ± 0.051
KRPVSAMFIFSEEKRRQLQEERPELSESELTRLLARMWNDLSEKKKAMYKAREAALKAQSER	-0.022 ± 0.056
KRPVSAMFIFSEEKRRQLQEERPELSESELTRLLARMWNDLSEKKKANYKAREAALKAQSER	0.029 ± 0.18
KRPVSAMFIFSEEKRRQLQEERPELSESELTRLLARMWNDLSEKKKAPYKAREAALKAQSER	-0.009 ± 0.074
KRPVSAMFIFSEEKRRQLQEERPELSESELTRLLARMWNDLSEKKKAQYKAREAALKAQSER	-0.091 ± 0.18
KRPVSAMFIFSEEKRRQLQEERPELSESELTRLLARMWNDLSEKKKARYKAREAALKAQSER	-0.047 ± 0.05
KRPVSAMFIFSEEKRRQLQEERPELSESELTRLLARMWNDLSEKKKASYKAREAALKAQSER	-0.048 ± 0.052
KRPVSAMFIFSEEKRRQLQEERPELSESELTRLLARMWNDLSEKKKATYKAREAALKAQSER	-0.005 ± 0.053
KRPVSAMFIFSEEKRRQLQEERPELSESELTRLLARMWNDLSEKKKAVYKAREAALKAQSER	-0.101 ± 0.055
KRPVSAMFIFSEEKRRQLQEERPELSESELTRLLARMWNDLSEKKKAWYKAREAALKAQSER	-0.094 ± 0.061
KRPVSAMFIFSEEKRRQLQEERPELSESELTRLLARMWNDLSEKKKAYYKAREAALKAQSER	-0.209 ± 0.18
KRPVSAMFIFSEEKRRQLQEERPELSESELTRLLARMWNDLSEKKKAKDKAREAALKAQSER	-0.626 ± 0.075
KRPVSAMFIFSEEKRRQLQEERPELSESELTRLLARMWNDLSEKKKAKEKAREAALKAQSER	-0.643 ± 0.062
KRPVSAMFIFSEEKRRQLQEERPELSESELTRLLARMWNDLSEKKKAKFKAREAALKAQSER	-0.221 ± 0.078
KRPVSAMFIFSEEKRRQLQEERPELSESELTRLLARMWNDLSEKKKAKGKAREAALKAQSER	-0.761 ± 0.038
KRPVSAMFIFSEEKRRQLQEERPELSESELTRLLARMWNDLSEKKKAKHKAREAALKAQSER	-0.597 ± 0.096
KRPVSAMFIFSEEKRRQLQEERPELSESELTRLLARMWNDLSEKKKAKKKAREAALKAQSER	-0.861 ± 0.1
KRPVSAMFIFSEEKRRQLQEERPELSESELTRLLARMWNDLSEKKKAKLKAREAALKAQSER	-0.577 ± 0.054

Variant	abundance fitness
KRPVSAMFIFSEEKRRQLQEERPELSESELTRLLARMWNDLSEKKKAKMKAREAALKAQSER	-0.839 ± 0.08
KRPVSAMFIFSEEKRRQLQEERPELSESELTRLLARMWNDLSEKKKAKNKAREAALKAQSER	-0.807 ± 0.09
KRPVSAMFIFSEEKRRQLQEERPELSESELTRLLARMWNDLSEKKKAKPKAREAALKAQSER	-0.615 ± 0.084
KRPVSAMFIFSEEKRRQLQEERPELSESELTRLLARMWNDLSEKKKAKQKAREAALKAQSER	-0.756 ± 0.17
KRPVSAMFIFSEEKRRQLQEERPELSESELTRLLARMWNDLSEKKKAKRKAREAALKAQSER	-0.913 ± 0.056
KRPVSAMFIFSEEKRRQLQEERPELSESELTRLLARMWNDLSEKKKAKSKAREAALKAQSER	-0.718 ± 0.058
KRPVSAMFIFSEEKRRQLQEERPELSESELTRLLARMWNDLSEKKKAKTKAREAALKAQSER	-0.798 ± 0.12
KRPVSAMFIFSEEKRRQLQEERPELSESELTRLLARMWNDLSEKKKAKVKAREAALKAQSER	-0.82 ± 0.052
KRPVSAMFIFSEEKRRQLQEERPELSESELTRLLARMWNDLSEKKKAKWKAREAALKAQSER	-0.022 ± 0.06
KRPVSAMFIFSEEKRRQLQEERPELSESELTRLLARMWNDLSEKKKAKYAAREAALKAQSER	-0.138 ± 0.076
KRPVSAMFIFSEEKRRQLQEERPELSESELTRLLARMWNDLSEKKKAKYCAREAALKAQSER	-0.049 ± 0.099
KRPVSAMFIFSEEKRRQLQEERPELSESELTRLLARMWNDLSEKKKAKYDAREAALKAQSER	-0.189 ± 0.1
KRPVSAMFIFSEEKRRQLQEERPELSESELTRLLARMWNDLSEKKKAKYEAREAALKAQSER	-0.017 ± 0.08
KRPVSAMFIFSEEKRRQLQEERPELSESELTRLLARMWNDLSEKKKAKYFAREAALKAQSER	0.002 ± 0.11
KRPVSAMFIFSEEKRRQLQEERPELSESELTRLLARMWNDLSEKKKAKYGAREAALKAQSER	-0.251 ± 0.074
KRPVSAMFIFSEEKRRQLQEERPELSESELTRLLARMWNDLSEKKKAKYHAREAALKAQSER	-0.036 ± 0.13
KRPVSAMFIFSEEKRRQLQEERPELSESELTRLLARMWNDLSEKKKAKYIAREAALKAQSER	0.005 ± 0.11
KRPVSAMFIFSEEKRRQLQEERPELSESELTRLLARMWNDLSEKKKAKYMAREAALKAQSER	-0.096 ± 0.083
KRPVSAMFIFSEEKRRQLQEERPELSESELTRLLARMWNDLSEKKKAKYPAREAALKAQSER	-0.65 ± 0.077
KRPVSAMFIFSEEKRRQLQEERPELSESELTRLLARMWNDLSEKKKAKYQAREAALKAQSER	-0.016 ± 0.079
KRPVSAMFIFSEEKRRQLQEERPELSESELTRLLARMWNDLSEKKKAKYRAREAALKAQSER	-0.032 ± 0.055
KRPVSAMFIFSEEKRRQLQEERPELSESELTRLLARMWNDLSEKKKAKYSAREAALKAQSER	-0.131 ± 0.053

Variant	abundance fitness
KRPVSAMFIFSEEKRRQLQEERPELSESELTRLLARMWNDLSEKKKAKYVAREAALKAQSER	-0.038 ± 0.064
KRPVSAMFIFSEEKRRQLQEERPELSESELTRLLARMWNDLSEKKKAKYWAREAALKAQSER	-0.134 ± 0.059
KRPVSAMFIFSEEKRRQLQEERPELSESELTRLLARMWNDLSEKKKAKYYAREAALKAQSER	-0.074 ± 0.22
KRPVSAMFIFSEEKRRQLQEERPELSESELTRLLARMWNDLSEKKKAKYKCREAALKAQSER	-0.166 ± 0.094
KRPVSAMFIFSEEKRRQLQEERPELSESELTRLLARMWNDLSEKKKAKYKDREAALKAQSER	-0.102 ± 0.06
KRPVSAMFIFSEEKRRQLQEERPELSESELTRLLARMWNDLSEKKKAKYKEREAALKAQSER	-0.033 ± 0.082
KRPVSAMFIFSEEKRRQLQEERPELSESELTRLLARMWNDLSEKKKAKYKFREAALKAQSER	-0.079 ± 0.07
KRPVSAMFIFSEEKRRQLQEERPELSESELTRLLARMWNDLSEKKKAKYKGREAALKAQSER	-0.101 ± 0.047
KRPVSAMFIFSEEKRRQLQEERPELSESELTRLLARMWNDLSEKKKAKYKHREAALKAQSER	-0.142 ± 0.12
KRPVSAMFIFSEEKRRQLQEERPELSESELTRLLARMWNDLSEKKKAKYKIREAALKAQSER	-0.148 ± 0.075
KRPVSAMFIFSEEKRRQLQEERPELSESELTRLLARMWNDLSEKKKAKYKKREAALKAQSER	-0.052 ± 0.086
KRPVSAMFIFSEEKRRQLQEERPELSESELTRLLARMWNDLSEKKKAKYKLREAALKAQSER	-0.042 ± 0.051
KRPVSAMFIFSEEKRRQLQEERPELSESELTRLLARMWNDLSEKKKAKYKMREAALKAQSER	-0.059 ± 0.074
KRPVSAMFIFSEEKRRQLQEERPELSESELTRLLARMWNDLSEKKKAKYKPREAALKAQSER	-0.374 ± 0.094
KRPVSAMFIFSEEKRRQLQEERPELSESELTRLLARMWNDLSEKKKAKYKQREAALKAQSER	-0.053 ± 0.082
KRPVSAMFIFSEEKRRQLQEERPELSESELTRLLARMWNDLSEKKKAKYKSREAALKAQSER	-0.066 ± 0.052
KRPVSAMFIFSEEKRRQLQEERPELSESELTRLLARMWNDLSEKKKAKYKVREAALKAQSER	-0.059 ± 0.051
KRPVSAMFIFSEEKRRQLQEERPELSESELTRLLARMWNDLSEKKKAKYKWREAALKAQSER	-0.219 ± 0.082
KRPVSAMFIFSEEKRRQLQEERPELSESELTRLLARMWNDLSEKKKAKYKYREAALKAQSER	-0.097 ± 0.18
KRPVSAMFIFSEEKRRQLQEERPELSESELTRLLARMWNDLSEKKKAKYKAAEAALKAQSER	-0.17 ± 0.066
KRPVSAMFIFSEEKRRQLQEERPELSESELTRLLARMWNDLSEKKKAKYKACEAALKAQSER	-0.111 ± 0.078
KRPVSAMFIFSEEKRRQLQEERPELSESELTRLLARMWNDLSEKKKAKYKADEAALKAQSER	-0.106 ± 0.14

Variant	abundance fitness
KRPVSAMFIFSEEKRRQLQEERPELSESELTRLLARMWNDLSEKKKAKYKAEEAALKAQSER	-0.026 ± 0.073
KRPVSAMFIFSEEKRRQLQEERPELSESELTRLLARMWNDLSEKKKAKYKAFEAALKAQSER	-0.209 ± 0.1
KRPVSAMFIFSEEKRRQLQEERPELSESELTRLLARMWNDLSEKKKAKYKAGEAALKAQSER	-0.193 ± 0.048
KRPVSAMFIFSEEKRRQLQEERPELSESELTRLLARMWNDLSEKKKAKYKAHEAALKAQSER	-0.1 ± 0.099
KRPVSAMFIFSEEKRRQLQEERPELSESELTRLLARMWNDLSEKKKAKYKAIEAALKAQSER	-0.134 ± 0.11
KRPVSAMFIFSEEKRRQLQEERPELSESELTRLLARMWNDLSEKKKAKYKAKEAALKAQSER	0.014 ± 0.1
KRPVSAMFIFSEEKRRQLQEERPELSESELTRLLARMWNDLSEKKKAKYKALEAALKAQSER	-0.114 ± 0.045
KRPVSAMFIFSEEKRRQLQEERPELSESELTRLLARMWNDLSEKKKAKYKAMEAALKAQSER	-0.092 ± 0.061
KRPVSAMFIFSEEKRRQLQEERPELSESELTRLLARMWNDLSEKKKAKYKANEAALKAQSER	-0.277 ± 0.11
KRPVSAMFIFSEEKRRQLQEERPELSESELTRLLARMWNDLSEKKKAKYKAPEAALKAQSER	-0.254 ± 0.064
KRPVSAMFIFSEEKRRQLQEERPELSESELTRLLARMWNDLSEKKKAKYKAQEAALKAQSER	0.002 ± 0.06
KRPVSAMFIFSEEKRRQLQEERPELSESELTRLLARMWNDLSEKKKAKYKASEAALKAQSER	-0.137 ± 0.046
KRPVSAMFIFSEEKRRQLQEERPELSESELTRLLARMWNDLSEKKKAKYKATEAALKAQSER	-0.042 ± 0.079
KRPVSAMFIFSEEKRRQLQEERPELSESELTRLLARMWNDLSEKKKAKYKAVEAALKAQSER	-0.127 ± 0.058
KRPVSAMFIFSEEKRRQLQEERPELSESELTRLLARMWNDLSEKKKAKYKAWEAALKAQSER	-0.234 ± 0.077
KRPVSAMFIFSEEKRRQLQEERPELSESELTRLLARMWNDLSEKKKAKYKAYEAALKAQSER	-0.324 ± 0.11
KRPVSAMFIFSEEKRRQLQEERPELSESELTRLLARMWNDLSEKKKAKYKARAAALKAQSER	-0.056 ± 0.072
KRPVSAMFIFSEEKRRQLQEERPELSESELTRLLARMWNDLSEKKKAKYKARCAALKAQSER	-0.086 ± 0.11
KRPVSAMFIFSEEKRRQLQEERPELSESELTRLLARMWNDLSEKKKAKYKARDAALKAQSER	-0.123 ± 0.076
KRPVSAMFIFSEEKRRQLQEERPELSESELTRLLARMWNDLSEKKKAKYKARFAALKAQSER	-0.186 ± 0.068

Source: the Human Domainome abundance scans (Beltran et al. 2025)
